Experimental data reported in publication PMC10620092, “Structure and electromechanical coupling of a voltage-gated Na^+/H^+ exchanger” (Nature, 2023).

Target: the molecule itself
Test: cryo-EM structure; 3 mg/ml SLC9C1 in GDN detergent (50 mM Tris-HCl pH 7.5, 150 mM NaCl, 0.02% GDN); C2 symmetry, symmetry expansion and masked refinement for the VSDs

B1: Strongylocentrotus purpuratus (sea urchin) SLC9C1, full length, GFP-TwinStrep tag removed by TEV (natural protein, UniProt A3RL54 30-1325, looked up)
chain: SSGGSGHTPTTQATHADDHDLTTHNGTEEHDDGHDDGHDDLHAHAPKVIVFISGSCLFGAISRSLFKKLPIPYTVVLLILGAILGVVASNVPLVEEHTRDVAHMDPHVLLQIFLPVLIFESAFAMDVHTFMRSFSQVCILALFGLVVASVLTAVLAMNLFNYNWNFSEAMMFGAIMSATDPVAVVALLKDLGASKQLGTIIEGESLLNDGCAIVIFNVFMKMVFFPQLTSTVGQNVLYFLQVAVAGPLWGYAVAKVTVFFLSHIFNDALVEITITLAATYLTYYIGDIWLEVSGVLAVVVLGLIVNAEKTSISPEVEVFLHRFWEMLAYLANTLIFMMVGVVVTQKALVAVDKMDWFYLIILYLAITIIRGMVISLFSPILSRIGYGLTWRNAVIMTWGGLRGAVGLALALVVENLAGNDVIGSKFLFHTAGIVVLTLVINATTIQTLLRILGMSDISIPKRLAMAGAVRRIHEGQNRTLNMLKSDRFLADADWDIATAACEISDPYSALSDDENAPADELTLGERKSVCPGCKAMVPNEPSPREFADMMEEARLRMLKAEKISYWKQFEHGMLAREALRLLVQHAEVAADEKDQFILVDDLKKSWQIKGIYPWLKRKLEDLISEKKIAAIPMPKYKLGKLMYKICHHMAFEVTINIAIVLNIVPIIMEFVVQDKMASVSTMAAPGSTVSSEPSSLQKIEDALRISNYVFFVIYAIEAIVKILGLGRHYIVSHWNKFDAFILVVALVDIIIAETLLKGSITINLSSIKVVKLFRLLRGLRMLRLTKALIPKLILVVNGKINNQLSLGYDVGKGYIIGEEEVGKIIDRMVDNKKILRELKHISETGRLQVVKELGLLQREHPGIAVSVKTRQAIRTILNHSRETIHELQGAGLLDEMEAHKLELTVEIKMKRLMNAPSSIPPPPPENLLKNVSWLAGDMKLIDFIKARASLLHFDYGEVIVREGDESDGLFLIVSGLVKLYGKSAFLDHDNPPVTAGSEENEVFEDYLTVGNVIGEMGVLTKKPRNATVTCETTVQVYFITAEDMNIAIDTFTLYPSLEYRLWRVVAIRIATPLIMEQMAFQGWTQEKVKLHLERGYLVDLAESHFQFNIDATLEDVILINGTAYNAHTREEIRSPCLISRTVHKLTFQYTATEEPRLFVVRNAEYNGPILDGRLDVDSKRSLISITEISSNMCLKHAAELRQKNSKVMLSRKSSGAAAKEEEDCIPNTSDVEQAAGVSPSVPTKTTPKPKSFLPSLGLSMSKERVNGEAVEESPVKTKQGEETPETEEGAAPRVNV
notes: synthesised gene in pcDNA3.1(+); A TEV recognition site follows the protein; what is left of it after cleavage stays at the C terminus; also called sperm-specific Na+/H+ exchanger SLC9C1; SLC9C1(WT); source: for one sample further reconstituted into MSP1E2 nanodiscs with yeast polar lipids; not shown: eGFP, C-terminal, cleaved; TwinStrep, C-terminal, cleaved; His8, C-terminal, cleaved
  stoichiometry N: 2
